Test results reported in publication PMC5349851, “Combinatorial bZIP dimers display complex DNA-binding specificity landscapes”.

Legend:
ATF3;CEBPA = ATF3;CEBPA (human;human, UniProt P18847;P49715 ;, |); assay: EMSA-FRET; heterodimer; EMSA-FRET: 50 nM each labeled protein, 10 nM DNA, 50 mM potassium phosphate pH 7.4, 150 mM KCl, 0.1% BSA, 0.1% Tween-20, 5 ng/ul poly(dI-dC), 0.5 mM TCEP; 37 C; conditions: protein: recombinant;recombinant; fluorescein or TAMRA; chain copies: 2;2; label: 5' TYE 665; blunt
ATF3;CEBPA, sequence (P49715 273-345, one chain of several): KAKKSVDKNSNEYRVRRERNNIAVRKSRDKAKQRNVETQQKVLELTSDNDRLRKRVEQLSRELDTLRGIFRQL

BATF3 = biological target: T1, BATF3 (human, UniProt Q9NR55); assay: EMSA-FRET; homodimer; EMSA-FRET: 50 nM each labeled protein, 10 nM DNA, 50 mM potassium phosphate pH 7.4, 150 mM KCl, 0.1% BSA, 0.1% Tween-20, 5 ng/ul poly(dI-dC), 0.5 mM TCEP; 37 C; conditions: protein: recombinant; fluorescein or TAMRA; chain copies: 2; label: 5' TYE 665; blunt
T1 sequence: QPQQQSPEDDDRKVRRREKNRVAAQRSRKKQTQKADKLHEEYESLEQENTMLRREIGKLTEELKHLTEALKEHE

XBP1 [1] = biological target: T2, XBP1 (human, UniProt P17861); assay: EMSA-FRET; homodimer; comparable to CRE; EMSA-FRET: 50 nM each labeled protein, 10 nM DNA, 50 mM potassium phosphate pH 7.4, 150 mM KCl, 0.1% BSA, 0.1% Tween-20, 5 ng/ul poly(dI-dC), 0.5 mM TCEP; 37 C; conditions: protein: recombinant; fluorescein or TAMRA; chain copies: 2; label: 5' TYE 665; blunt
T2 sequence: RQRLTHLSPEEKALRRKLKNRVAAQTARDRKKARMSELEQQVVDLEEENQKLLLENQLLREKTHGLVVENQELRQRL

BATF3;JUN [2] = biological target: T3, BATF3;JUN (human;human, UniProt Q9NR55;P05412 ;, |); assay: EMSA-FRET; heterodimer; EMSA-FRET: 50 nM each labeled protein, 10 nM DNA, 50 mM potassium phosphate pH 7.4, 150 mM KCl, 0.1% BSA, 0.1% Tween-20, 5 ng/ul poly(dI-dC), 0.5 mM TCEP; 37 C; conditions: protein: recombinant;recombinant; fluorescein or TAMRA; chain copies: 2;2; label: 5' TYE 665; blunt
T3 sequence (P05412 243-316, one chain of several): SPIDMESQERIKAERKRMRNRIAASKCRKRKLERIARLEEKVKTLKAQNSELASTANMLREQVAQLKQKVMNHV

ATF2;BATF3 [3] = biological target: T4, ATF2;BATF3 (human;human, UniProt P15336;Q9NR55 ;, |); assay: EMSA-FRET; heterodimer; comparable to CRE; EMSA-FRET: 50 nM each labeled protein, 10 nM DNA, 50 mM potassium phosphate pH 7.4, 150 mM KCl, 0.1% BSA, 0.1% Tween-20, 5 ng/ul poly(dI-dC), 0.5 mM TCEP; 37 C; conditions: protein: recombinant;recombinant; fluorescein or TAMRA; copies: 1;1; label: 5' TYE 665; blunt
T4 sequence 1: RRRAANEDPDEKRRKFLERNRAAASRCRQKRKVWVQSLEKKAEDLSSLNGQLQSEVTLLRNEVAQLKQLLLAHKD
T4 sequence 2: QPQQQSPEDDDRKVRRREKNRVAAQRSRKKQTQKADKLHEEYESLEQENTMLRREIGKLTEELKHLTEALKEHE

JUN [4] = biological target: T5, JUN (human, UniProt P05412); assay: EMSA-FRET; homodimer; no detectable affinity; EMSA-FRET: 50 nM each labeled protein, 10 nM DNA, 50 mM potassium phosphate pH 7.4, 150 mM KCl, 0.1% BSA, 0.1% Tween-20, 5 ng/ul poly(dI-dC), 0.5 mM TCEP; 37 C; conditions: protein: recombinant; fluorescein or TAMRA; chain copies: 2; label: 5' TYE 665; blunt
T5 sequence (P05412 243-316): as the sequence (P05412 243-316, one chain of several) above

CEBPG = biological target: T6, CEBPG (human, UniProt P53567); assay: EMSA-FRET; homodimer; EMSA-FRET: 50 nM each labeled protein, 10 nM DNA, 50 mM potassium phosphate pH 7.4, 150 mM KCl, 0.1% BSA, 0.1% Tween-20, 5 ng/ul poly(dI-dC), 0.5 mM TCEP; 37 C; conditions: protein: recombinant; fluorescein or TAMRA; chain copies: 2; label: 5' TYE 665; blunt
T6 sequence: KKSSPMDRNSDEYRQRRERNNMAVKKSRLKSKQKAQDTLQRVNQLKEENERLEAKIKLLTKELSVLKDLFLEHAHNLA

ATF2;BATF3 [5] = biological target: T4, ATF2;BATF3; assay: EMSA-FRET; heterodimer; comparable to CRE-L; EMSA-FRET: 50 nM each labeled protein, 10 nM DNA, 50 mM potassium phosphate pH 7.4, 150 mM KCl, 0.1% BSA, 0.1% Tween-20, 5 ng/ul poly(dI-dC), 0.5 mM TCEP; 37 C; conditions: protein: recombinant;recombinant; fluorescein or TAMRA; copies: 1;1; label: 5' TYE 665; blunt
BATF3;JUN [6] = biological target: T3, BATF3;JUN; assay: as above; conditions: protein: recombinant;recombinant; fluorescein or TAMRA; chain copies: 2;2; label: 5' TYE 665; blunt
XBP1 [7] = biological target: T2, XBP1; assay: EMSA-FRET; homodimer; comparable to CRE-L; EMSA-FRET: 50 nM each labeled protein, 10 nM DNA, 50 mM potassium phosphate pH 7.4, 150 mM KCl, 0.1% BSA, 0.1% Tween-20, 5 ng/ul poly(dI-dC), 0.5 mM TCEP; 37 C; conditions: protein: recombinant; fluorescein or TAMRA; chain copies: 2; label: 5' TYE 665; blunt
JUN [8] = biological target: T5, JUN; assay: EMSA-FRET; homodimer; EMSA-FRET: 50 nM each labeled protein, 10 nM DNA, 50 mM potassium phosphate pH 7.4, 150 mM KCl, 0.1% BSA, 0.1% Tween-20, 5 ng/ul poly(dI-dC), 0.5 mM TCEP; 37 C; conditions: protein: recombinant; fluorescein or TAMRA; chain copies: 2; label: 5' TYE 665; blunt
ATF3 = biological target: T7, ATF3 (human, UniProt P18847); assay: as above; conditions: protein: recombinant; fluorescein or TAMRA; chain copies: 2; label: 5' TYE 665; blunt
T7 sequence: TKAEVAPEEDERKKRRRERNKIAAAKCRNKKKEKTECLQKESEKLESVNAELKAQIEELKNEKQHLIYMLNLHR

ATF3;CEBPG = biological target: T8, ATF3;CEBPG (human;human, UniProt P18847;P53567 ;, |); assay: EMSA-FRET; heterodimer; EMSA-FRET: 50 nM each labeled protein, 10 nM DNA, 50 mM potassium phosphate pH 7.4, 150 mM KCl, 0.1% BSA, 0.1% Tween-20, 5 ng/ul poly(dI-dC), 0.5 mM TCEP; 37 C; conditions: protein: recombinant;recombinant; fluorescein or TAMRA; chain copies: 2;2; label: 5' TYE 665; blunt
T8 sequence 1: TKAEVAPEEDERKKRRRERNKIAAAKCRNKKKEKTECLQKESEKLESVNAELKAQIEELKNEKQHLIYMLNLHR
T8 sequence 2: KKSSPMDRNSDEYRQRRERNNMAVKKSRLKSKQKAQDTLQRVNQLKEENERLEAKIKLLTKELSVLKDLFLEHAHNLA

BATF3;CEBPA = BATF3;CEBPA (human;human, UniProt Q9NR55;P49715 ;, |); assay: as above; conditions: protein: recombinant;recombinant; fluorescein or TAMRA; chain copies: 2;2; label: 5' TYE 665; blunt
BATF3;CEBPA, sequence (P49715 273-345, one chain of several): as the sequence (P49715 273-345, one chain of several) above

B1: AP1/CAAT (TRE-CAAT) (dsDNA)
DNA 1: GAGTCCATGAGCAATCCGTAG
DNA 2: CTACGGATTGCTCATGGACTC
binding result (ATF3;CEBPA): binds

B2: CRE-L (dsDNA)
DNA 1: GAGTCCATGACGTGGCCCGTAG
DNA 2: CTACGGGCCACGTCATGGACTC
binding result (BATF3): no binding
binding result (XBP1 [1]): binds
binding result (BATF3;JUN [2]): binds
binding result (ATF2;BATF3 [3]): binds
binding result (JUN [4]): no binding

B3: CAAT (dsDNA)
DNA 1: GAGTCCATTGCGCAATCCGTAG
DNA 2: CTACGGATTGCGCAATGGACTC
binding result (CEBPG): binds

B4: CRE (dsDNA)
DNA 1: GAGTCCATGACGTCATCCGTAG
DNA 2: CTACGGATGACGTCATGGACTC
binding result (ATF2;BATF3 [5]): binds
binding result (BATF3;JUN [6]): binds
binding result (XBP1 [7]): binds
binding result (JUN [8]): binds
binding result (BATF3): binds
binding result (ATF3): binds

B5: CRE/CAAT (dsDNA)
DNA 1: GAGTCCATGACGCAATCCGTAG
DNA 2: CTACGGATTGCGTCATGGACTC
binding result (ATF3;CEBPG): binds

B6: CREA/CAAT (CRE-L-CAAT) (dsDNA)
DNA 1: GAGTCCGCCACGCAATCCGTAG
DNA 2: CTACGGATTGCGTGGCGGACTC
binding result (BATF3;CEBPA): binds
